Test results published in patent publication US20200262898A1 (INTEGRAL MOLECULAR, published 2020).

T1: CD81 (UniProt P60033 1-236, limits assumed)
T1 construct: whole, on cells
T1 sequence (looked up): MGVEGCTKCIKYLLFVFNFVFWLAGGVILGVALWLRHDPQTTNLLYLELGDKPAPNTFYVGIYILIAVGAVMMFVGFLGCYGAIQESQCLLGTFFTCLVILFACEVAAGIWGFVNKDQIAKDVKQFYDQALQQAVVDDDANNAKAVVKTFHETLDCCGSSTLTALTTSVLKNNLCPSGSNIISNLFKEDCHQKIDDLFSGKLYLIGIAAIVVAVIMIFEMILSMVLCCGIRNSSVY

T2: CD59 (UniProt P13987 26-102, limits assumed)
T2 construct: whole, on cells
T2 sequence (looked up): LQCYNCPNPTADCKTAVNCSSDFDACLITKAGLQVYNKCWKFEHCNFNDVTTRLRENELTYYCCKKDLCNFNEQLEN


Legend:
[1] = biological target: T3, Fc-binding protein (the ZZ domain of ProA); experiment: flow cytometry on cells expressing the Fc-binding ZZ domain on their surface; given as a measure of expression
T3 construct: domain: ZZ domain of ProA; the construct is not described
From the text: (§1) Antibodies were generated using the common light chains B9, F10, C11, and H11 paired with 8 different heavy chains. […] Binding is expressed as Signal:Background for binding to the molecular target of the heavy chain antibody (listed at top of Table 4). Expression is based on binding to cells expressing an Fc-binding protein (the ZZ domain of ProA) (ZZ) on their surface, enabling total antibody to bind and be measured. Detection was using flow cytometry with cells transfected to express the target protein. Background binding S:B is normalized to 1.0, using mock-transfected cells as background. The data in the table below illustrate that the light chains can be used with a variety of heavy chains and the antibody generated from a VH that can bind to the light chains B9 and F10 will function and bind to the target of interest.

CD81 = biological target: T1, CD81; experiment: flow cytometry on cells transfected with the target; signal over mock-transfected cells (background = 1.0)
From the text: as §1

CD59 = biological target: T2, CD59; experiment: as above
From the text: as §1

Binder | S:B Expression [1] | S:B Binding (CD81) | S:B Binding (CD59)
Antibody of common light chain C11 (C11chicken) paired with the heavy chain against CD81 (antibody, V domains shown, also called HC-CD81) VH: AVTLDESGGGLQTPGGALSLVCKASGFSIGDYNMGWVRQAPGKGLEWVAGIDAGGGTWRATAVKGRATISRDNGQSTVRLQLNNLRAEDTATYFCAKSTDSSANCCANSIDAWGHGTEVIVSS VL: ALTQPSSVSANPGETVKITCSGGGSWYGSYYYGWYQQKSPGSAPVTLIYNNDKRPSDIPSRFSGSESGSTATLTITGVQAEDEAVYFCGGYDSTTTDMFGAGTTLTVL | 9.8 S:B | 30.9 S:B | –
Antibody of common light chain B9 (B9chicken) paired with the heavy chain against CD59 (antibody, V domains shown, also called HC-CD59) VH: AVTLDESGGGLQTPGGGLSLVCKASGFDFSSFDMVWVRQAPGKGLEWVAGISYSNTDTSYAPAVDGRATISRDNGQSTVRLQLNNLRAEDSATYYCAKSAGGCCYRADNIDAWGHGTEVIVSS VL: ALTQPSSVSANPGETVKITCSGGGSSNYYGWYQQKSPGSAPVTLIYGTNKRPSDIPSRFSGSKSGSTGTLTITGVQADDEAVYFCGSADSSTNAGIFGAGTTLTVL | 11.8 S:B | – | 0.7 S:B
Antibody of common light chain C11 (C11chicken) paired with the heavy chain against CD59 (antibody, V domains shown, also called HC-CD59) VH: AVTLDESGGGLQTPGGGLSLVCKASGFDFSSFDMVWVRQAPGKGLEWVAGISYSNTDTSYAPAVDGRATISRDNGQSTVRLQLNNLRAEDSATYYCAKSAGGCCYRADNIDAWGHGTEVIVSS VL: ALTQPSSVSANPGETVKITCSGGGSWYGSYYYGWYQQKSPGSAPVTLIYNNDKRPSDIPSRFSGSESGSTATLTITGVQAEDEAVYFCGGYDSTTTDMFGAGTTLTVL | 12.2 S:B | – | 1.4 S:B

The remaining lines, values ahead:

S:B Expression [1] | S:B Binding (CD81) | S:B Binding (CD59) | Binder
1.8 S:B | 1.2 S:B | – | Antibody of light chain D3 (D3chicken) paired with the heavy chain against CD81 (antibody, V domains shown, also called HC-CD81) VH: AVTLDESGGGLQTPGGALSLVCKASGFSIGDYNMGWVRQAPGKGLEWVAGIDAGGGTWRATAVKGRATISRDNGQSTVRLQLNNLRAEDTATYFCAKSTDSSANCCANSIDAWGHGTEVIVSS VL: ALTQPSSVSANPGETVKITCSGDDRWYGWYQQKSPGSAPVTLIYSNDKRPSDIPSRFSGSKSGSTGTLTITGVQADDEAVYFCGSRDSSYAGIFGAGTTLTVL
1.7 S:B | 1.5 S:B | – | Antibody of light chain E1 (E1chicken) paired with the heavy chain against CD81 (antibody, V domains shown, also called HC-CD81) VH: AVTLDESGGGLQTPGGALSLVCKASGFSIGDYNMGWVRQAPGKGLEWVAGIDAGGGTWRATAVKGRATISRDNGQSTVRLQLNNLRAEDTATYFCAKSTDSSANCCANSIDAWGHGTEVIVSS VL: ALTQPSSVSANPGETVKITCSGSSGSGYYGWYQQKSPGSAPVTLIYDNDKRPSDIPSRFSGSKSGSTGTLTITGVQADDEAVYFCGSADNNYTGIFGAGTTLTVL
